The supplement of paper PMC12042874
± gives the uncertainty stated by the source.

assay: amyloid nucleation score (Sup35N fusion, yeast selection) (log enrichment); library NNK1; higher = more nucleation; inactive = no reads after selection
Method in brief: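 Three technical output replicates were used for random libraries. Psi-negative yeast expressing peptides of 20 random codons fused to Sup35N were induced with 100 μM copper sulfate for 24 hours and grown 7 days at 30°C on medium lacking adenine and uracil, and input and output plasmid inserts were Illumina-sequenced, excluding sequences with under 100 input reads. The nucleation score is the DiMSum log enrichment of output over input reads, centred on the mode score of non-aggregating sequences.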

Substance	amyloid nucleation score
VHTINRTQLYNIH	-0.215 ± 0.65
NVIGISATNASLSLVLISVI	-0.509 ± 0.32
CSPVYIEFRLRQVFVARA	1.26 ± 0.76
PLSRVLGYVFIISRRTNRIL	-0.206 ± 0.28
PSILTVCLRV	0.188 ± 0.41
KCHLFKHLL	1.66 ± 0.6
YILPEAEHSKGC	0.803 ± 0.63
FYEIY	0.021 ± 0.93
GSQSEVVCGW	1.14 ± 0.74
GPFASVFCAYGRVGVM	0.354 ± 0.68
IFTFSIVTSNATGYLW	2.29 ± 0.12
YDEGHS	-0.778 ± 1.2
WPWNEPY	-0.251 ± 0.48
FTLLAFGCNSENGG	-0.462 ± 0.6
RCDLARVLLMGRWLGPNAVW	-0.359 ± 0.67
IWPLGNAIK	1.93 ± 0.51
EPFETQEVMSLNMCSNQMVF	0.333 ± 0.27
YYYYPNGDCEKK	-0.657 ± 0.63
MSFQY	-2.11 ± 1.9
WEYEAGNFDSVMMVLLLSCY	1.25 ± 0.61
SCIKNSCGINYLVGQATFHN	6.499 ± 0.049
WVLGGEFPYKRGGIAASLVL	-0.327 ± 0.84

Substance	amyloid nucleation score
PLLERHVAGLCGFFF	-0.908 ± 1.2
CWCGVTVCV	-0.276 ± 0.59
SYGNCVRCSLMYKGKHMLNT	0.022 ± 0.52
KCMTIAWIQSSVSAILLLNC	-0.181 ± 1.4
LLRWLRTVVSGGCVSVNLVE	0.034 ± 0.28
ICKFDLALKFRGRYTEAEWC	1 ± 0.32
AYSLLMDYGFNHLFIRRFSR	-0.067 ± 0.42
PYFLNCRPLRA	0.815 ± 0.52
SWMCSPRACCLLTFNFECMC	-0.635 ± 0.5
NISRAVHTRMGGYMSPTWLK	0.833 ± 0.5
RTRLFYFGPDNNRVRRRGCS	1.13 ± 0.71
GTVPNVRKYPCFLCSMRR	-1.28 ± 1.4
VQEYGASCKSMTGLGTLKCK	0.876 ± 0.81
TGPDSISAYQHLFNCS	1.64 ± 0.54
RCDYVEWIWYPCYRRNGVCR	0.171 ± 0.39
RSVSLKWQSRKHWLLTLTLA	0.931 ± 0.32
TTEFIGES	1.25 ± 0.73
FKEER	0.133 ± 1.4
LSFLLEASNHDWDGSLG	inactive
TDNTSFELYIWTDAFLKQTT	0.208 ± 1
MTPKLVQSRT	0.106 ± 0.91
TSFGYLLVSRNWCNSWCIMS	3.01 ± 0.079

Substance	amyloid nucleation score
SLMDKMPTIVLELVYHAVQI	0.018 ± 0.49
VCVGFIGDVIRLERSANSVL	-0.049 ± 0.3
EVWNRTWIGEENVTGPFVPR	-0.012 ± 0.24
SLLIELSFRTGNSEY	0.152 ± 0.5
RLDISSYSLFGINQVWA	2.63 ± 0.17
LTRGQSLPMCATSVFEEYSH	0.325 ± 0.43
SCGNLIVRPLVGVCHAWNEE	0.489 ± 0.46
MKFRINVDLLLNLDNPGIKL	0.165 ± 0.45
MDLGRMSSGFMRSNMNKKVR	0.519 ± 0.4
IRLKYSGHAILFHETKNKHA	0.511 ± 0.42
LAWWLCGNLVTWYIITDGQW	1.04 ± 0.55
LHRSRFHDNTTSNGLLKGTV	-0.574 ± 0.6
QNPWNGILLAKNWRDKMLRN	0.3 ± 0.52
NRLCDK	1.25 ± 0.35
SYVDRVLSSRSRWMKIVELN	0.083 ± 0.44
YKKGYWSGDVAFVWWFTYMC	0.959 ± 0.54
DFDNEGLWCS	-0.217 ± 0.42
VRSKLPPGSFDSFWGWWEKK	-0.343 ± 0.45
KVRIQGPTNVCVVRTMCGWF	5.98 ± 0.056
SKFFQLFSVTILYAMDSGPC	-0.462 ± 0.7
VYSRSWPGFLKWLLASIFF	0.694 ± 1.2
QVFATRDAQRYLLMHRIDHN	-0.153 ± 1.7

Substance	amyloid nucleation score
LPSDSFAVI	0.483 ± 0.81
CHGCIGTNSEGLCTLYEDYT	-0.594 ± 0.26
LHRYNYLVYRSTKCMFGVLI	0.222 ± 0.52
TEIIFYLVYGWLTFRILGYN	-0.705 ± 0.43
SSFCRLLNIMYSRWGGLGTY	inactive
TVNSWRNLMSDLSWFSAVIL	-0.657 ± 0.39
ISGTRLVLGLDDSR	0.069 ± 0.37
WVLAVRTSNLCRRGMLYKL	-0.662 ± 0.45
LCPGFNWESFLVKMVLHFFR	-0.606 ± 0.75
LYKDGQGSKEAIVSRVDCMS	0.892 ± 0.25
LNVGVLGGRLLSGALVNSTM	0.396 ± 0.65
YDIRL	-0.376 ± 0.65
NRDYTVFKTRVFKSIFRIR	0.505 ± 0.78
CRRPEWCEWQGLQTEE	0.266 ± 0.83
TVDKTYFFYIVDCNVDKPGD	1.08 ± 0.59
CELGTIDHSEKMLMVNWCAG	0.967 ± 0.34
DDKSFQ	0.614 ± 0.37
INSTEIPFDPAVKL	-0.908 ± 0.79
LMNICRNVARG	-0.876 ± 0.71
SASWGRYGERLHCDQRYFII	inactive
